Measurements taken from patent publication US20190010193A1 (REALTA, published 2019).
Ends that are not written are not given here.

Key:
C1q (human) = C1q (human) (UniProt P02745); assay: cell-based or functional assay
calreticulin = target: T1, calreticulin (UniProt P27797 18-417, limits assumed); assay: plates coated with C1q, calreticulin and BSA, PA peptide added (FIG. 14A)
T1 construct: also called CRT; recombinant calreticulin
T1 sequence (looked up): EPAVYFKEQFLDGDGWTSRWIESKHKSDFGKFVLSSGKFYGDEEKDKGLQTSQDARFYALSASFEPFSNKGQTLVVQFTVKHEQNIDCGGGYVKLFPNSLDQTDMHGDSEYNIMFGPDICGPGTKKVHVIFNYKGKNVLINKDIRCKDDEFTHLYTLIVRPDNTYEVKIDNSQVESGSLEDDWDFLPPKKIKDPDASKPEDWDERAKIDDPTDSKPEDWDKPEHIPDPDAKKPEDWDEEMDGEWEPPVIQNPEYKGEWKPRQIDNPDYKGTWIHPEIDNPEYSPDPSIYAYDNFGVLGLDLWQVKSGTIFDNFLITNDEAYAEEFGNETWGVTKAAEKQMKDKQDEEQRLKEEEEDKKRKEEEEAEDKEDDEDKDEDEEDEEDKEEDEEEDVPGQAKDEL

BSA = target: T2, BSA (UniProt P02769 25-607); assay: as above
T2 construct: Negative control
T2 sequence (P02769 25-607 limits assumed): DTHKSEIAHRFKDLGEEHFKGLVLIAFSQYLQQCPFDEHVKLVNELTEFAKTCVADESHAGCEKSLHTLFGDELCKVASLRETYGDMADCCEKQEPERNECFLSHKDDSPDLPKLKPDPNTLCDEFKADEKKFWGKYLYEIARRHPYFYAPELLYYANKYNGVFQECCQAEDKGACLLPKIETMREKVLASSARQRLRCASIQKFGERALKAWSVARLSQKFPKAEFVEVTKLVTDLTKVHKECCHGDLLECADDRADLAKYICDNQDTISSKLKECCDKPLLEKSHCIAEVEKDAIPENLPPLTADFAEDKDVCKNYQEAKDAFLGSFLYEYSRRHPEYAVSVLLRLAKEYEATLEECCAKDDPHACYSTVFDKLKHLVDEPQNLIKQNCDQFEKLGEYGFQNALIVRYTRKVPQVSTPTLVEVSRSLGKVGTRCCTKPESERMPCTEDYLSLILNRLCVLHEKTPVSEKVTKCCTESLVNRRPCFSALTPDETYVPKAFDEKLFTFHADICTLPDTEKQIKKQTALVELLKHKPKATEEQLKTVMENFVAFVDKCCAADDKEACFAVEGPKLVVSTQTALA

C1q (human), sequence (P02745 23-245, chain 1 of 3): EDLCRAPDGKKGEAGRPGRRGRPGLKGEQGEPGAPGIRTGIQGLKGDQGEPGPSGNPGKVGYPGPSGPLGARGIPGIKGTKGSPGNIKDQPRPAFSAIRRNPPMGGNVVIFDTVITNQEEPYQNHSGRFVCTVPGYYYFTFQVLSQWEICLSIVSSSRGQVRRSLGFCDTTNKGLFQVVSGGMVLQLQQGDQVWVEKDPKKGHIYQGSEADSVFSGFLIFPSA
C1q (human), sequence (P02746 28-253, chain 2 of 3, further chain): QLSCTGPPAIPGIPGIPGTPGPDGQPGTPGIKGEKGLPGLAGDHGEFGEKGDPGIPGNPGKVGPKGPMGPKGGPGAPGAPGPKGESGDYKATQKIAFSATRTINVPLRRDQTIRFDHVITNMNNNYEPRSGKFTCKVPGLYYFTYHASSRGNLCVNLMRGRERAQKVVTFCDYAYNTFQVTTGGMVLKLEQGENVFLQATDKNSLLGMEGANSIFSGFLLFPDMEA
C1q (human), sequence (P02747 29-245, chain 3 of 3, further chain): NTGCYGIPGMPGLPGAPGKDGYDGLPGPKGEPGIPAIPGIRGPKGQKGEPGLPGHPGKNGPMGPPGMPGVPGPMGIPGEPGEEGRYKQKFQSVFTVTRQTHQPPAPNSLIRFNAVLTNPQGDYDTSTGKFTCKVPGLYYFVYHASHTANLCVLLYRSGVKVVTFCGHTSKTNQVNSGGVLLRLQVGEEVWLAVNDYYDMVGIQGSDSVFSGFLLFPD

Q: For IALILEPICCQERAA-dPEG08 (cysteine pairing not given here) [PA-dPEG08], which Hemolysis (%), sensitized sheep RBCs, factor B-depleted human serum, peptide 0.77 mM (C1q (human)) is on record?
A: 34.7%

Q: How did the Hemolysis (%), sensitized sheep RBCs, factor B-depleted human serum, peptide 0.77 mM (C1q (human)) turn out when IALILEPICCQERAA-dPEG20 (cysteine pairing not given here) [PA-dPEG20] was run?
A: 11.4%

Q: How did the Hemolysis (%), sensitized sheep RBCs, factor B-depleted human serum, peptide 0.77 mM (C1q (human)) turn out when IALILEPICCQERAA-dPEG16 (cysteine pairing not given here) [PA-dPEG16] was run?
A: 12%

Q: Which Hemolysis (%), sensitized sheep RBCs, factor B-depleted human serum, peptide 0.77 mM (C1q (human)) does the source give for IALILEPICCQERAA-dPEG04 (cysteine pairing not given here) [PA-dPEG04] here?
A: 12.4%

Q: Which Hemolysis (%), sensitized sheep RBCs, factor B-depleted human serum, peptide 0.77 mM (C1q (human)) does the source give for IALILEPICCQERAA-dPEG06 (cysteine pairing not given here) [PA-dPEG06] here?
A: 44.8%

Q: IALILEPICCQERAA-dPEG03 (cysteine pairing not given here) [PA-dPEG03] was tested. Which Hemolysis (%), sensitized sheep RBCs, factor B-depleted human serum, peptide 0.77 mM (C1q (human)) did it give?
A: 12.6%

Q: Which results are given for IALILEPICCQERAA (also called PA; PIC1) [Polar Assortant peptide]?
A: binding result (calreticulin): no binding; binding result (BSA): no binding

Q: How did the Hemolysis (%), sensitized sheep RBCs, factor B-depleted human serum, peptide 0.77 mM (C1q (human)) turn out when IALILEPICCQERAA-dPEG12 (cysteine pairing not given here) [PA-dPEG12] was run?
A: 11.4%

Q: How did the Hemolysis (%), sensitized sheep RBCs, factor B-depleted human serum, peptide 0.77 mM (C1q (human)) turn out when IALILEPICCQERAA-dPEG24 (cysteine pairing not given here) [PA-dPEG24] was run?
A: 2.99%

Q: And the Hemolysis in presence of PA-dPEG24 (Abs 412 nm), plasma of Donor O+ #1 with B+ erythrocytes (0.747 without peptide) (C1q (human))?
A: 0.008 Abs 412 nm

Q: What about the inhibition of hemolysis of B erythrocytes by type-O plasma, dose-response (FIG. 8) (C1q (human)) of the same binder?
A: > 95%

Q: How did the Hemolysis (%), sensitized sheep RBCs, factor B-depleted human serum, peptide 0.77 mM (C1q (human)) turn out when IALILEPICCQERAA-dPEG02 (cysteine pairing not given here) [PA-dPEG02] was run?
A: 11.6%
